Reference: patent US20110008766A1

Molecular target: HIV antigen
Test: FRET quenching titration in solution; one value given for outer and inner domain

B1: DVD746 (bispecific antibody)
VH: QVQLQQSGAELMKPGASVKISCKASGYTFTSYWIEWIKQRPGHGLEWIGEILPGTGSLNNNEKFRDKATFTADTSSNTAYMQLSSLTSEDSAVYYCARGYRYDGWFAYWGQGTLVTVSAASTKGPSVFPLAPEVQLQQSGPELVKPGASMKISCKASDYSFTAYTIHWMKQSHGKNLEWIGLINPYNGGTSYNQKFQGRATLTVDKSSSIAYMELLSLTSEDSAVYYCARRGYDREGHYYAMDYWGQGTSVTVSS
VL: DIQMTQSPASLSASVGETVTITCRTSENIYSYLAWYQQKPGKSPHLLVYNTKTLAEGVPSRFSGSGSGTQFSLKINSLQPEDFGSYYCQHHYDSPLTFGSGTKLELKRTVAAPSVFIFPPDIQMTQSPASLAASVGETVTITCRASENIYTFLAWYQQKQGKSPQLLVYTTKTLAEGVPSRFSGSGSGTQFSLKIKSLQPEDFGSYYCQHHYGLPLTFGAGTKLELKR
- Kd: 0.2 nM

B2: DVD745 (antibody)
VH: QIQLVQSGPELKKPGETVKISCKASGYTFTDYSMHWVKQAPGKGLKWMGWIHTETGEPRYVDDFKGRFAFSLETSASTAYLQINNLKNEDTATYFCARDSYYFGSSYYFDYWGQGTTLTVSSASTKGPQIQLVQSGPELKKPGETVKISCKASGYTFTDYSMHWVKQAPGKGLKWMGWIHTETGEPRYVDDFKGRFAFSLETSASTAYLQINNLKNEDTATYFCARDSYYFGSSYYFDYWGQGTTLTVSS
VL: DTVMTQSHKFMSTSVGDRVSITCKASQDVSSAVAWYQQKPGQSPKLLIYSASYRYTGVPDRFTGSGSGMDFTFTISSVQAEDLAVYYCQQHYSTPLTFGAGTKLELERTVAAPDTVMTQSHKFMSTSVGDRVSITCKASQDVSSAVAWYQQKPGQSPKLLIYSASYRYTGVPDRFTGSGSGMDFTFTISSVQAEDLAVYYCQQHYSTPLTFGAGTKLELER
- Kd: 0.4 nM

B3: DVD750 (antibody)
VH: EVQLQQSGPELVQPGASMKISCKASGYSFTDYTMNWVKQSHGKNLEWIGLINPYNGGSRYNQKFMAKATLTVDKSSNTAYMELLSVTSEDSAVYYCARDAGYFGSGFYFDYWGQGTTLTVSSASTKGPSVFPLAPEVQLQQSGPELVQPGASMKISCKASGYSFTDYTMNWVKQSHGKNLEWIGLINPYNGGSRYNQKFMAKATLTVDKSSNTAYMELLSVTSEDSAVYYCARDAGYFGSGFYFDYWGQGTTLTVSS
VL: DIVMTQSHKFMSTSVGDRVSITCKASQDVSTAVAWYQQKPGQSPKLLIYSASYRSTGVPDRFTGSGSGTDFTFTISSVQAEDLAVYYCQQHYSTPTFGAGTKLELKRTVAAPSVFIFPPDIVMTQSHKFMSTSVGDRVSITCKASQDVSTAVAWYQQKPGQSPKLLIYSASYRSTGVPDRFTGSGSGTDFTFTISSVQAEDLAVYYCQQHYSTPTFGAGTKLELKR
- Kd: < 0.02 nM

B4: DVD744 (antibody)
VH: QIQLVQSGPELKKPGETVKISCKASGYTFTDYSMHWVKQAPGKGLKWMGWIHTETGEPRYVDDFKGRFAFSLETSASTAYLQINNLKNEDTATYFCARDSYYFGSSYYFDYWGQGTTLTVSSASTKGPSVFPLAPQIQLVQSGPELKKPGETVKISCKASGYTFTDYSMHWVKQAPGKGLKWMGWIHTETGEPRYVDDFKGRFAFSLETSASTAYLQINNLKNEDTATYFCARDSYYFGSSYYFDYWGQGTTLTVSS
VL: DTVMTQSHKFMSTSVGDRVSITCKASQDVSSAVAWYQQKPGQSPKLLIYSASYRYTGVPDRFTGSGSGMDFTFTISSVQAEDLAVYYCQQHYSTPLTFGAGTKLELERTVAAPSVFIFPPDTVMTQSHKFMSTSVGDRVSITCKASQDVSSAVAWYQQKPGQSPKLLIYSASYRYTGVPDRFTGSGSGMDFTFTISSVQAEDLAVYYCQQHYSTPLTFGAGTKLELER
- Kd: 0.4 nM

B5: DVD715 (antibody)
VH: QVQLQQSGAELMKPGASVKISCKASGYTFTSYWIEWIKQRPGHGLEWIGEILPGTGSLNNNEKFRDKATFTADTSSNTAYMQLSSLTSEDSAVYYCARGYRYDGWFAYWGQGTLVTVSAASTKGPQVQLQQSGAELMKPGASVKISCKASGYTFTSYWIEWIKQRPGHGLEWIGEILPGTGSLNNNEKFRDKATFTADTSSNTAYMQLSSLTSEDSAVYYCARGYRYDGWFAYWGQGTLVTVSA
VL: DIQMTQSPASLSASVGETVTITCRTSENIYSYLAWYQQKPGKSPHLLVYNTKTLAEGVPSRFSGSGSGTQFSLKINSLQPEDFGSYYCQHHYDSPLTFGSGTKLELKRTVAAPDIQMTQSPASLSASVGETVTITCRTSENIYSYLAWYQQKPGKSPHLLVYNTKTLAEGVPSRFSGSGSGTQFSLKINSLQPEDFGSYYCQHHYDSPLTFGSGTKLELKR
- Kd: < 0.02 nM

B6: DVD748 (bispecific antibody)
VH: EVQLQQSGPELVKPGASMKISCKASDYSFTAYTIHWMKQSHGKNLEWIGLINPYNGGTSYNQKFQGRATLTVDKSSSIAYMELLSLTSEDSAVYYCARRGYDREGHYYAMDYWGQGTSVTVSSASTKGPSVFPLAPQVQLQQSGAELMKPGASVKISCKASGYTFTSYWIEWIKQRPGHGLEWIGEILPGTGSLNNNEKFRDKATFTADTSSNTAYMQLSSLTSEDSAVYYCARGYRYDGWFAYWGQGTLVTVSA
VL: DIQMTQSPASLAASVGETVTITCRASENIYTFLAWYQQKQGKSPQLLVYTTKTLAEGVPSRFSGSGSGTQFSLKIKSLQPEDFGSYYCQHHYGLPLTFGAGTKLELKRTVAAPSVFIFPPDIQMTQSPASLSASVGETVTITCRTSENIYSYLAWYQQKPGKSPHLLVYNTKTLAEGVPSRFSGSGSGTQFSLKINSLQPEDFGSYYCQHHYDSPLTFGSGTKLELKR
- Kd: < 0.03 nM

B7: DVD747 (bispecific antibody)
VH: QVQLQQSGAELMKPGASVKISCKASGYTFTSYWIEWIKQRPGHGLEWIGEILPGTGSLNNNEKFRDKATFTADTSSNTAYMQLSSLTSEDSAVYYCARGYRYDGWFAYWGQGTLVTVSAASTKGPSVFPLAPASTKGPSVFPLAPEVQLQQSGPELVKPGASMKISCKASDYSFTAYTIHWMKQSHGKNLEWIGLINPYNGGTSYNQKFQGRATLTVDKSSSIAYMELLSLTSEDSAVYYCARRGYDREGHYYAMDYWGQGTSVTVSS
VL: DIQMTQSPASLSASVGETVTITCRTSENIYSYLAWYQQKPGKSPHLLVYNTKTLAEGVPSRFSGSGSGTQFSLKINSLQPEDFGSYYCQHHYDSPLTFGSGTKLELKRTVAAPSVFIFPPTVAAPSVFIFPPDIQMTQSPASLAASVGETVTITCRASENIYTFLAWYQQKQGKSPQLLVYTTKTLAEGVPSRFSGSGSGTQFSLKIKSLQPEDFGSYYCQHHYGLPLTFGAGTKLELKR
- Kd: < 0.06 nM

B8: DVD716 (antibody)
VH: QVQLQQSGAELMKPGASVKISCKASGYTFTSYWIEWIKQRPGHGLEWIGEILPGTGSLNNNEKFRDKATFTADTSSNTAYMQLSSLTSEDSAVYYCARGYRYDGWFAYWGQGTLVTVSAASTKGPSVFPLAPQVQLQQSGAELMKPGASVKISCKASGYTFTSYWIEWIKQRPGHGLEWIGEILPGTGSLNNNEKFRDKATFTADTSSNTAYMQLSSLTSEDSAVYYCARGYRYDGWFAYWGQGTLVTVSA
VL: DIQMTQSPASLSASVGETVTITCRTSENIYSYLAWYQQKPGKSPHLLVYNTKTLAEGVPSRFSGSGSGTQFSLKINSLQPEDFGSYYCQHHYDSPLTFGSGTKLELKRTVAAPSVFIFPPDIQMTQSPASLSASVGETVTITCRTSENIYSYLAWYQQKPGKSPHLLVYNTKTLAEGVPSRFSGSGSGTQFSLKINSLQPEDFGSYYCQHHYDSPLTFGSGTKLELKR
- Kd: < 0.02 nM
